IntAct's records for PubMed 18829461

B1: Protein phosphatase 1A (Homo sapiens), P35813 (parent)
chain: MGAFLDKPKMEKHNAQGQGNGLRYGLSSMQGWRVEMEDAHTAVIGLPSGLESWSFFAVYDGHAGSQVAKYCCEHLLDHITNNQDFKGSAGAPSVENVKNGIRTGFLEIDEHMRVMSEKKHGADRSGSTAVGVLISPQHTYFINCGDSRGLLCRNRKVHFFTQDHKPSNPLEKERIQNAGGSVMIQRVNGSLAVSRALGDFDYKCVHGKGPTEQLVSPEPEVHDIERSEEDDQFIILACDGIWDVMGNEELCDFVRSRLEVTDDLEKVCNEVVDTCLYKGSRDNMSVILICFPNAPKVSPEAVKKEAELDKYLECRVEEIIKKQGEGVPDLVHVMRTLASENIPSLPPGGELASKRNVIEAVYNRLNPYKNDDTDSTSTDDMW

Variants of: B1
Settings: with cdk9_human CDK9, P50750
cdk9_human CDK9, P50750, sequence (P50750 whole entry): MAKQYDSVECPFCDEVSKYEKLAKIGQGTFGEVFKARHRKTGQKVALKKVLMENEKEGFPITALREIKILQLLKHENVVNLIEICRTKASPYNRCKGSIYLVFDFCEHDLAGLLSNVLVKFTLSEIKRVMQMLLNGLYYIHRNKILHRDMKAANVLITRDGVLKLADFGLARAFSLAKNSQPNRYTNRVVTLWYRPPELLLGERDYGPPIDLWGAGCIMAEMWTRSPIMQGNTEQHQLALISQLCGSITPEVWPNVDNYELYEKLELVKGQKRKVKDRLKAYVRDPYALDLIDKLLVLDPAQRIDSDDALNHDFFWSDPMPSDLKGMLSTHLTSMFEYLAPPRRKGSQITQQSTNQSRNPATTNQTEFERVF

Variant	effect of a mutation on the interaction
MGAFLDKPKMEKHNAQGQGNGLRYGLSSMQGWRVEMEDAHTAVIGLPSGLESWSFFAVYDGHAGSQVAKYCCEHLLDHITNNQDFKGSAGAPSVENVKNGIRTGFLEIDEHMRVMSEKKHGADRSGSTAVGVLISPQHTYFINCGDSRGLLCRNRKVHFFTQDHKPSNPLEKERIQNAGGSVMIQRVNGSLAVSRALGDFDYKCVHGKGPTEQLVSPEPEVHDIERSEEDDQFIILACNGIWDVMGNEELCDFVRSRLEVTDDLEKVCNEVVDTCLYKGSRDNMSVILICFPNAPKVSPEAVKKEAELDKYLECRVEEIIKKQGEGVPDLVHVMRTLASENIPSLPPGGELASKRNVIEAVYNRLNPYKNDDTDSTSTDDMW [D239N]	with no effect
